From US20240309052A1

How the values were obtained:
[1] = biological target: recombinant mouse CD96-his (788806; Biolegend) (mouse) (UniProt Q3U0X8); test: SPR (Biacore T200), single-cycle kinetics, mCD96-his captured by anti-His, 1:1 Langmuir fit
[2] = biological target: recombinant mouse CD226-his (50232-M08H; SinoBiological) (mouse) (UniProt Q8K4F0); test: SPR (Biacore T200), single-cycle kinetics, mCD226-his captured by anti-His, 1:1 Langmuir fit
[3] = biological target: recombinant mouse TIGIT-Fc-his (771808; Biolegend) (mouse) (UniProt P86176); test: SPR (Biacore T200), single-cycle kinetics, mTIGIT-Fc-his captured by anti-His, 1:1 Langmuir fit
UniProt P86176, sequence (P86176 29-148 limits assumed): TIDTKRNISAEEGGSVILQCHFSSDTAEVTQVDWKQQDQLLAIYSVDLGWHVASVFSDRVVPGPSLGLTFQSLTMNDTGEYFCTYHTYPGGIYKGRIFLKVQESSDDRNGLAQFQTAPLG

UniProt Q3U0X8, sequence (Q3U0X8 22-536 limits assumed): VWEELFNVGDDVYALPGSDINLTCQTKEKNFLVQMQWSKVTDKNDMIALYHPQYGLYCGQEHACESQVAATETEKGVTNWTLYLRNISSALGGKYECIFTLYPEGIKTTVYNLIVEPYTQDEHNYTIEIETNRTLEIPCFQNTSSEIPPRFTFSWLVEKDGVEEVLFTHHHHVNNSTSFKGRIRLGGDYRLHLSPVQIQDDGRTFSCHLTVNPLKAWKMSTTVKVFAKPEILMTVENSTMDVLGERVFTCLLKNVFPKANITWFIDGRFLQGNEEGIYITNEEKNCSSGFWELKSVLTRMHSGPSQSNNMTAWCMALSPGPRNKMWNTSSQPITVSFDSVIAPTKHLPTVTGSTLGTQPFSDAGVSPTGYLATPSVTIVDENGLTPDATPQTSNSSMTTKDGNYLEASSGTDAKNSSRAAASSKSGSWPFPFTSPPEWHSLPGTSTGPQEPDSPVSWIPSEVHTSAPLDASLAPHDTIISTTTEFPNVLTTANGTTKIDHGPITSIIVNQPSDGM
UniProt Q8K4F0, sequence (Q8K4F0 19-254 limits assumed, stated change not applied): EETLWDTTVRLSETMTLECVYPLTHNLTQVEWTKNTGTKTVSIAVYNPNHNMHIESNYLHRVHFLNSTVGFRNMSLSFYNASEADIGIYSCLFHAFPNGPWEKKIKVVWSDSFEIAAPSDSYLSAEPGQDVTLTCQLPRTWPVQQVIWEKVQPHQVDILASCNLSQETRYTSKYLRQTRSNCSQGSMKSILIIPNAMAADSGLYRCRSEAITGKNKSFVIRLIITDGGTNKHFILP

“PVR-Fc (786608; Biolegend), full-length mouse PVR ECD-Fc (Fc fusion)” gave a Kd [1] of 4.07 nM, a koff [1] of 0.00455 s⁻¹ and a kon [1] of 1.17e+06 M⁻¹ s⁻¹. The Kd [2] was 0.83 nM, the Kd [3] was 2.26 nM and the koff [3] was 0.0646 s⁻¹. It also gave a kon [3] of 2.25e+07 M⁻¹ s⁻¹.
